Consider ten molecules from patent US20250241939A1, “NUCLEIC ACID-BASED DELIVERY SYSTEMS AND USES THEREOF” (Kodikaz Therapeutic Solutions, Inc., priority 2022, published 2025).

The data set concerns MIA (pancreatic cancer) cell genome. Nature of the data set: ctDNA coculture with MIA cells, whole genome sequencing: genomic insertion sites, transposons at insertion points and SNVs (pancreatic cancer). The settings on record: for blast orientation / blast chr / Transposon orientation / Distance from insertion / Location relative to insertion: TABLE 8, pancreatic cancer co-culture; for blast orientation: BLAST alignment orientation; for blast chr: chromosome with the longest result for BLAST analysis of the full contig; for Transposon orientation: compared with the human reference genome; for Distance from insertion: distance between insertion and the transposon (0 if they overlap); for Location relative to insertion: location of the transposon relative to the insertion on the contig; for Location / No. SNP / Chr location / Gene: TABLE 4; for Location: identified genomic insertion site, chromosome; for No. SNP: number of single nucleotide variants (SNVs or SNPs) identified, polynucleotides for pancreatic cancer cells; for Chr location: position on the chromosome of the identified genomic insertion site; for Gene: gene at identified genomic insertion site. Format: cell-based, human. How it is done:
The integration of ctDNAs into the host cell genome was evaluated. ctDNA was extracted from patient plasma, cultured for 24 hours with cells of a matching cancer cell type or non-matching cancer cell type, and whole genome sequencing was performed. The cell lines used were MM1s (multiple myeloma, MM) and MIA (pancreatic cancer, PC).
The sequence data was used to reconstruct genomic contigs for each experimental condition by de novo assembly. […] Coculture contigs carrying a ctDNA insertion were identified using NucDiff analysis.
Experiments were designed to identify the presence of transposons in ctDNA fragments. To map ctDNA genomic junctions more precisely, a PACBIO probe was ligated to multiple myeloma and pancreatic cancer ctDNA samples to label their 5′ and 3′ ends. Whole-genome sequencing of DNA from cells with ctDNA genomic integration was done using the Illumina platform. De novo assembly was performed on the sequencing output. ctDNA contigs containing PACBIO adaptor were then matched to those contigs containing inserted ctDNA sequences identified in the coculture experiments. Transposable element on ctDNA sequences at the insertion points (<100 nucleotides from transition point between cell and ctDNA) were detected and classified using RepeatMaster.
A search was conducted for transposons that preferentially target cells of matching tumor types. The lists of transposons identified at the ctDNA insertion point in matching and mismatched coculture conditions were compared (e.g., MM ctDNA with MM cells or PC cells). Transposons were selected that were uniquely or preferentially inserted in the matching conditions.
Whole-genome sequencing and Whole exon sequencing: ctDNA was extracted from 10 MM and 10 PC patients. DNA from CD138 (+) cells and from cell lines used in in vitro experiments (MM1s and MIA) was extracted using Blood & Cell Culture DNA Mini Kit (Quiagen, MD). DNA from […] paraffin embedded pancreatic tumors was obtained using QIAamp DNA FFPE Tissue Kit Print (Qiagen, MD).
After extraction, ctDNA was ligated to the PACBIO adaptor ([…]) using the ABM DNA Library Prep Kit for Illumina Sequencing (Applied Biological Materials Inc. Canada). PACBio-labeled ctDNA and regular ctDNA were subjected to standard methods for library preparation and sequencing using Illumina and Agilent protocols, respectively. Applied Biological Materials Inc. prepared the libraries and performed whole-exon and -genome sequencing.
Identification of transposable elements and its nucleotide variants: To determine the locations of transposable-like regions in contigs, sequences were analyzed and transposable elements (TEs) were identified and classified using RepeatMasker version 4.1.0 and the Dfam database (release 3.1) of repetitive DNA families was used as a reference for identifying repeats in ctDNA contig sequences that were part of qualifying structural events. For each repeat sequence identified by RepeatMasker, the overall frequency of the specific repeat (e.g., for AluSp or L1) and their parent class (e.g., SINE) was computed.
Once the TE elements were identified, hit repeats/TE sequences, unique contigs for all samples, and insertion sequence were aligned with MAFFT software version. Mutations in TE sequences were identified by comparison of nucleotides at each position in the multiple sequence alignment with the “Biostrings” R package (version 4.1). A position was considered to contain mutation if the substitution was present in contigs of all samples.

L1ME4b: the blast orientation entry was “Plus/Plus”, the blast chr entry was “chr7”, the Transposon orientation result is given as “direct” and the Distance from insertion entry is “+1930”. Moreover, the “Location relative to insertion” value is recorded as “right”.
Regarding Mam_R4, the blast orientation result was “Plus/Plus”, the blast chr result is “chr9”, the Transposon orientation entry is recorded as “direct” and the Distance from insertion was found to be 0. In addition, the “Location relative to insertion” value is reported as “intersect”.

B1: 39 (nucleic acid, listed as Homo sapiens)
chain: GTATTTAGATTCCCAGACTTTGGAGCCAGATCGGCTGAGTTCAAACCCTGTCTGTGCAACTATCAGCTGTTCAGCTGTGTGACCTTGGGCAAGTTACTTAACCTCTCTGAACCCTGATTCCTCCTGCAAACGGTGGGAAAAATAATAGAACCAATCTCTCTGGGTTGCTGTAAGGATTAAATTAATTTACAGTGCATGTAACATGCTTACAGCAATGTCTGGCACACAGTAAGCACTAAGTATTTGTTGTTATTTGTCATC
In the case of B1, the Location entry is recorded as “Chr 2”, the “No. SNP” value is 1 and the Chr location was 27942978.

B2: 47 (nucleic acid, listed as Homo sapiens)
chain: AGGCCTGGCACAGTGGCTCATGCGTGTAATCCCAACACTGCGGGAAGCTGAGGCAGGAGGATCACTTGAGCCCAGGAGCTCATGGCTGTAGTGAGCTGTGATTGCACCACTGCACTGCACTCCAGCCTGGGCAACAGCAAGACCCTGTCTCCAAAAAAAAAAAACAAAACAAATTAAT
Regarding B2, the Gene entry is listed as “LINE1/Alu”, the Location entry was “Chr 10”, the “No. SNP” value came to 4 and the Chr location was 14247220.

B3: 32 (nucleic acid, listed as Homo sapiens)
chain: CTCCATGTTCTGACCTCAGGTGATCTGCCCGCCTCCGCCTCCCATAAGTTCCTTCTGCACCTATTCCATTCCATCTGCAATGTCATCCTGGCCAACCTGTGAATGGGTATAGCAGGATAGTAAGTTAGTCCCAGTGTTTAGGCAGACTCCATAGACCAGATTTAACGTGTTTGTATAAACCGCATGGCTCGCTCTTACTCAGCCTTCGGGTCGGCCTTAAGATACACAGTTTTAAGAAAAGCATTGTCTTCACTCTTAGTGTAGATCAGGTCCTCCTCNCCCCCANCACGTTATGTCCCTGTCATTGAACATTATACTTTTATGAAGAATTGTGAGCTGTCTGAGATTTTACCTTACTTGCAAACTAACAAGTGGGCCTGCCATAGTTTCATGTCTGGCAGAAGACTCCAACAGGTCAGAGATTTTCATCTGTCTTGTTCACTATTGTCTACATAGTGCCTGGAAAAATGCCTGGCACACAGTAAACCCTCAATCAGTATTTTATGAATGAGTGAAC
modifications: misc_difference 279 a, c, t, g, unknown or other; misc_difference 286 a, c, t, g, unknown or other
As for B3, the Location result is recorded as “Chr21” and the “No. SNP” value stood at 5.

B4: 46 (nucleic acid, listed as Homo sapiens)
chain: CACCCAAGTCACCTCTTGAATGCTTTGCTGCTTAGACATTTCTTCTGCCAGATACCCTAAATAATCTCTCTCAAGTTCAAAGTTCCACAAATCTCTAGGGCAGGGGCAAAATGCCACCAGTCTGTTTGCTAAAACATAACAAGAGTCATCTTTGCTCCAGTTCCCAACAAATTCCTTATCTCCATCTGAGACCACCTTATCCTGGATTTCATTGTCCATATCATTATCAGCATTTTGGTCAAAGCCACTCCACAAGTCCCTAGGAAGTTCCAAACTTTCCCACATTTTCCTGTCTTCTTCTGAGGCCTCCAACCTATTCCACCCTCTGTCTGTTACCCAGTTCCAAAGTTGCTTCTACATTTTCAGGTGTCTTTTCAGCAGTGCCACACTCTACTGGTACTAATTTAC
Regarding B4, the Location entry is given as “Chr 5”, the “No. SNP” value came out at 2 and the Chr location turned out to be 107782747.

B5: 35 (nucleic acid, listed as Homo sapiens)
chain: AAGATGGGGAGGATGGTGGTGGAGCAGGCTGGGGAGATGAGGAGCTTGAGGGGCCTAGGAGCTAACCACCCATTCACTGTTTATGGGTGGGGTGGCTCCGGGCAGGTGGCCTGACCCCTCTAAACCTCAGTTTCCCCATCTGTAAAATGGGAGTAATTGTACCTGCCTCACGGGCATGTAGCAGGTGGGAGAGAGAGTAATACGGGCAAGACGTCTAGTGCAGTGGCTGGAACATAACAAGCACCCAGCAAGTGGTGGCCCCATTGCT
Regarding B5, the Location result was “Chr14” and the “No. SNP” value came out at 0.

B6: 30 (nucleic acid, listed as Homo sapiens)
chain: AATATTAATTTGGGCTCTCCAGAGAAACAGAACCAATAGATTACACATAGATATATAGAAAGACAGTTATTACAAGGAATTGGCTCACAGGATTATGTAGGCTGAGAAGTCCCATGACCTGCCGTCTGCAAGCTGGAGACCCAGGAAAGCCGGTGGTGTAGTTCCAGTCCGAGTTGGGAGGTCTGAGAATCGGGAGAGCTGACAGAGTAAGCTCTAGTTGCAGCCTGGAGTCCAGAGGGCAAAGAACACCTATGTCCCATCTCAAGCACGGTCAGGCGTCCCAGCTCAAGCAGAGAGAAAGAAGACTTTCCTGCTCAGCCTCCTTGCTCTAAGCAGCCTCCCGACGGATTGGATGAAGCTCACCCACGCTGGGGAGGGCAGCCACCTTCACTCAGTCCACCAATTCAAATGCTAATCTCATCCAGAAACACCCTCACAGGCACACCCAGAAATAATGTTTAGCCACATATCTGGGCATCCTGAGGACCAGTCAAATTGACTCATAAGTCTCACCATCATA
Turning to B6, the Gene entry was “RAB7A”, the Location result is recorded as “Chr3” and the “No. SNP” value worked out at 1.

B7: 41 (nucleic acid, listed as Homo sapiens)
chain: CCCTTGAACTTATTAAAATCTTTTATAATGTAGTACATTTACTGACTGCTTTCAGGCAGGCATGAGGACCTTTCACTCCATTTGCTCCATTGTCCCTTTTGAAGGATTCTTGTCATATATATAAAACCTCTTAAGACATAATGTTATTGTTTTATATACTCTTTAATCACCTACATCTTTGCACTTTAATATTTCCTAAATTTGCATTCTTCTCTCTGGGACTAGAAGACCTCAGCTTAGCGGTTCTTTTCATGTGGGCCTGAGAAATTTTCTCACTTTTTGTTTCACTTTCATTCTTGAAGGAACGTTTCACTGGTTATAGGATGCAAGGTTAGCGGTTATTCTCTTCTGCATCTTCCCACTGCATTGTCTTCTGAATCTTATAATTTATGTAAAAACATTAGTTGTCTGTCTTCCCATTGCTTCTGTGAAAATAATGCATGTTTTCCTCTGGTTGTTTTTGACATTTTCTTTGTGTCTGTTTCTCAGCAATTTTTCCATGATATATGCTCGGAGCGGGCTTACTTATCCTACACCCTGAATCTGTAGCTTGACGTCTTTTTGTCAACTTTGGAAAGTTTTTGGCATTATCTCATCAAATATTTCCCCTGTCCTGTTCTTGCTCTTCTCTTGCTGGAGTGCAGTCGTTCCTGTATTAGACCTTTGCATCATGTTCTAGGTATTTTTATCT
In the case of B7, the Gene result is “GRB10”, the Location entry was “Chr 7”, the “No. SNP” value turned out to be 1 and the Chr location was found to be 50660129.

B8: 33 (nucleic acid, listed as Homo sapiens)
chain: TGTGTTAGTCAGGATAGGCTAACCTCTGTAACACACAACCCCAATTTTTCAGTGGCTCAGAACAATAGGAGTTTCTTTCTTACTCATGTAAAGTCCAGGTGTGGCAGAAACTTGCGGGGGAGAAAGTCTACTCCACAGCATCACTCAGGGACCCAGGCTCCTGCCTTACGGTGGTTCCGCCATTTTCCAGGGCCTCGGAGTCCTCCATCCCATCTCCTCCATTCAGCTGGTGGATGTGGGAGGAGAGCGTGTATGAAAGACCACACAGAAGCTTTTTTTGGGCCAGGCTTTGAGACGGCGCACATCAGTTTCGCTCTTGTTGCCCAGGCTGGAGTGCAATGGCGCAATCTCGGCTCACCGCAAAAGACACTGGGAAATTTGGTCTGGCCATGTGTCTAGGAAGCAGAGGAGATGGGGTTTCATAAACTCCTGAACTCTCTCTACCACG
As for B8, the Location result is given as “Chr21” and the “No. SNP” value is recorded as 4.
